{"source": "patent US20170218059A1", "binders": {"B1": {"name": "murine IMMU-H4 antibody (antibody, V domains shown)", "VH": "QVQLQQSGAELVRPGASVKLSCTASGFNIKDDYLHWVKQRPEQGLEWIGWIDPENGDTEYASKFQGKATITADTSSNTAYLQLSSLTSEDTAVYYCSSPLVHLRTFAYWGQGTLVTVS", "VL": "DIQLTQSPASLAVSLGQRATISCRASESVDSYDNSLHWFQQKPGQPPKLLIYLASNLESGVPARFSGSGSRTDFTLTIDPVEADDAATYYCQQNNEDPWTFGGGTKLEIKR"}}, "molecular_target": "histones", "experiment": "ELISA"}
{"binder": "B1", "values": [{"measurement": "Kd", "value": 6.6, "unit": "nM"}]}
